# Source: the nanobody polyreactivity screen of Harvey et al. (2022)
# Experiment: yeast display, Sf9 membrane polyspecificity reagent, FACS + sequencing; frameworks hold sequencing errors
# Procedure, shortened: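 Genes from sorted yeast were amplified by colony PCR, read by MiSeq 2 × 250 sequencing and filtered on CDR length. These cells carried a synthetic nanobody library in Saccharomyces cerevisiae BJ5465 and were sorted by FACS into low and high (top ~1%) gates on anti-HA and streptavidin fluorescence. Polyreactivity is labelled according to the gate of origin.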
row,Sequence,polyreactivity (PSR sort gate)
1,QVQLVESGGGLVQAGGSLRLSCAASGITFQIYAMGWYRQAPGKERELVAAISRSGGSSTNYADSVKGRFTISRDNAKNTVYLQMYSLNPEDTAVYYCAAVSPYTGGANDYWGQGTQVTVSS,high polyreactivity
2,QVQLVESGGGLVQAGGSLRLSCAASGITFQNYAMGWYKQAPGKERELVAAITRSGGRTYYADSVKGRFTISRDNAKNTVYLQMNSLKPEDTAVYYCAVYGIGRPYWYDYWGQGTQLTVSS,high polyreactivity
3,QVQLVESGGGLVQAGGSLRLSCAASGITFQRYAMGWYRQAPGKERELVAAISWSGGSTYYADSVKGRFTISRDNAKNTVYLQMNSLKPVDTAVYYCAAELSVSTSHGVDYWGQGTQVTVSS,high polyreactivity
4,QVQLVESGGGLVQAGGSLRLSCAASGITFQSNAMGWYRQAPGKERELVAGISGSGTSTYYADSVKGRFTISRDNAKNTVYLQMNSLKPEDTAVYYCAAAQSKYSFYWGDYYYWGQGTQVTVSS,high polyreactivity
5,QVQLVESGGGLVQAGGSLRLSCAASGITFQYYAMGWYRQAPGKERELVAAISGGGSTNYADSVKGRFTISRDNAKNTVYLQMNSLKPEDTAVYYCAAADLNLELDYWGQGTQVTVSS,high polyreactivity
6,QVQLVESGGGLVQAGGSLRLSCAASGITFRGYAMGWYRQAPGKERELVADITWNGGSTYYADSVKGRFTISRDNAKNTVYLQMNSLKPEDTAVYYCAADGYPIYWSSYRFYYWGQGTQVTVSS,high polyreactivity
7,QVQLVESGGGLVQAGGSLRLSCAASGITFRHYAMGWYRQAPGKERELVAAITSRGGSTYYADSVKGRFTISRDNAKNTVYLQMNSLKPEDTAVYYCAARRRLRAPDDYWGQGTQVTVSS,high polyreactivity
8,QVQLVESGGGLVQAGGSLRLSCAASGITFRLYAMGWSRQAPGKEREFVAAISRRGGSTYYADSVKGRFTISRDNAKNSVYLQMNSLKPEDTAVYYCARYGLVYALGYWGQGTQVTVSS,high polyreactivity
9,QVQLVESGGGLVQAGGSLRLSCAASGITFRQNTMGSYRQAPGKEGELVAAITSSGRTYYADSVKGRFTISRDNAKNTVYLQMNSLKPEDSAVYYCAADTYYFGYGYWGQGTQVTVSS,high polyreactivity
10,QVQLVESGGGLVQAGGSLRLSCAASGITFRQYAMGWYRQAPGKEREFVAAISWIGGSTYYADSVKGRFTISRDTAKNTVYLQMNSLKPEDTAVYYCAAETFTDYDYWGQGTQVTVSS,high polyreactivity
11,QVQLVESGGGLVQAGGSLRLSCAASGITFRRNAMGWYRQAQGKESQLVAAITSRGGSTYYADSVKWRFTISRDNAKNTVYLQMISMKPEDTAVYYCNAGGVDRVDRDYWGQGTQVTVSS,high polyreactivity
12,QVQLVESGGGLVQAGGSLRLSCAASGITFRRYTMGWYRQAPGKEMELVAAISRIGGSTYYADSVKGRFTISRDNAKNTVYLQMNSLKPEDTAVYYCARAGRVQPGSEDDYWGQGTQVTVSS,high polyreactivity
13,QVQLVESGGGLVQAGGSLRLSCAASGITFRSYAMGWYRQAPGKERELVAAISQSGTSTYYADSVKGRFTISRDNAKNTVYLQMNSLKPEDTAVYYCAASYYLKLRRRRYDYWGQGTQVTVSS,high polyreactivity
14,QVQLVESGGGLVQAGGSLRLSCAASGITFRWYAMGWYRQAPGKERELVASISSGGITTYADSVKGRFTISRDNAKNTVYLQMNSLKPEDTAVDYCNAVGHTSIRRALDILDYWGQGTQVTVSS,high polyreactivity
15,QVQLVESGGGLVQAGGSLRLSCAASGITFRYSAMGWYRQAPGKERELVAVISTSGGSTYYADSVKGRFTISRDNAKNTVYLQMNSLKPEDTAVYYCAARYTYWGLLRYDYWGQGTQVTVSS,high polyreactivity
16,QVQLVESGGGLVQAGGSLRLSCAASGITFRYYAMGLYRQAPGKERELVAAITRSASSTFYADSVKGRFTISRDNAKNTVYLQMNSLKPEVTAVYYCAAESVRAVFPDRYKYWGQGTQVTVSS,high polyreactivity
